According to patent US20220267469A1:

Key:
[1] = target: Biotinylated human BSSL (human) (UniProt P19835); assay: flow cytometry displacement assay; 0.5 ug antibody, 1 ug b-hBSSL
[2] = target: Biotinylated human BSSL (human) (UniProt P19835); assay: flow cytometry displacement assay; 1.0 ug antibody, 1 ug b-hBSSL
[3] = target: Biotinylated human BSSL (human) (UniProt P19835); assay: flow cytometry displacement assay; 1.5 ug antibody, 1 ug b-hBSSL
[4] = target: Biotinylated human BSSL (human) (UniProt P19835); assay: flow cytometry displacement assay; 2.0 ug antibody, 1 ug b-hBSSL
[5] = target: Biotinylated human BSSL (human) (UniProt P19835); assay: flow cytometry displacement assay; 3.0 ug antibody, 1 ug b-hBSSL

Biotinylated human BSSL (human), sequence (P19835 other isoform, or with tags, fused parts or gaps): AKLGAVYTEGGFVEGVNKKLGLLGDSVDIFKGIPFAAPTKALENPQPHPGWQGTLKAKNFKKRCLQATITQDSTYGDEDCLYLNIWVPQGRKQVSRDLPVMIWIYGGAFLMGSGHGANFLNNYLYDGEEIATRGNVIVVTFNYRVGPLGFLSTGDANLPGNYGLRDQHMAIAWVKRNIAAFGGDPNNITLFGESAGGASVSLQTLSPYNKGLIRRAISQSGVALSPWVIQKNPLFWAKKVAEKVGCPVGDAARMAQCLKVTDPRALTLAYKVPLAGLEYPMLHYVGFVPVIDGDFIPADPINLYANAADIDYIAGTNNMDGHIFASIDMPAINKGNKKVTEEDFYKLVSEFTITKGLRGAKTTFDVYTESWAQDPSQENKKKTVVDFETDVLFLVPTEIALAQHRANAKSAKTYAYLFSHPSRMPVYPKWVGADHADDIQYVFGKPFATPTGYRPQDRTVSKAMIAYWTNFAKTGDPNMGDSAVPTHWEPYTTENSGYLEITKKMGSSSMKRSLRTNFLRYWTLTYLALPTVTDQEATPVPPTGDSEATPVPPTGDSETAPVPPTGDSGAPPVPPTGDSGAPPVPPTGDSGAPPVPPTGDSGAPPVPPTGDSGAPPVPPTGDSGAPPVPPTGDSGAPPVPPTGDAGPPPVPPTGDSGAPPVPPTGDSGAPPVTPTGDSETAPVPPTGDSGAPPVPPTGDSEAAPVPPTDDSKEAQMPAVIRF

percentage reduction of b-hBSSL binding to CD14+ monocytes [1]: -8% | percentage reduction of b-hBSSL binding to CD14+ monocytes [2]: -2% | percentage reduction of b-hBSSL binding to CD14+ monocytes [3]: -4% | percentage reduction of b-hBSSL binding to CD14+ monocytes [4]: -1% | percentage reduction of b-hBSSL binding to CD14+ monocytes [5]: -7%
Substance: anti-human alpha-synuclein mlgG1 (antibody)
